Measurements reported in patent CN117025546A.

Assays:
[1] = target: GST标签蛋白 (Schistosoma japonicum (Blood fluke)) [GST: P08515]; assay: indirect ELISA, GST tag protein coated at 10000 to 0.64 ng/mL, antibody at 1 μg/mL
[2] = target: GST标签蛋白 (Schistosoma japonicum (Blood fluke)) [GST: P08515]; assay: indirect ELISA, GST tag protein coated in dilution series, antibody at 1 μg/mL

B1: 抗GST单克隆抗体 (杂交瘤细胞株62H9分泌, CCTCC NO:C2021187) (antibody, V domains shown)
VH: EVQLQESGPELVKPGASVRMSCKASGYTFTSYFMHWVKQKSGQGLEWIGYINPYHDGTNYNEKFKGKATLTSDKSSSTAYMELSSLTSEDSAVYSCARSQRLHWYFDVWGAGTTVTVSS
VL: DIVLTQSPTSLAVSLGQRATISCRASQGVSASSYSYIHWYQQKPGQPPKLLIKYASNLESGVPARFSGSGSGTDFTLNVHPVEEEDTATYYCQHSWEIPLTFGGGTKLEIK
- 亲和力 [1]: 20 ng/mL
- OD (450nm) at antigen 20ng/ml [2]: 1 OD
